Laboratory results: the supplement of paper PMC10065799, “High-throughput profiling of sequence recognition by tyrosine kinases and SH2 domains using bacterial peptide display” (eLife, 2023)

target: Fes (UniProt P07332); test: phosphorylation enrichment, bacterial display (enrichment ratio); higher = better substrate or ligand; peptides without Tyr show the background
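Also: 11-residue human phosphosite peptides and single-mutation variants displayed on the E. coli surface, counted by deep sequencing, each peptide's frequency after selection divided by its frequency in the unselected input library; frequency after pTyr selection over input frequency; kinase dosed for 20-30% of maximal phosphorylation in three min.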

Fes, sequence (P07332 whole entry, looked up): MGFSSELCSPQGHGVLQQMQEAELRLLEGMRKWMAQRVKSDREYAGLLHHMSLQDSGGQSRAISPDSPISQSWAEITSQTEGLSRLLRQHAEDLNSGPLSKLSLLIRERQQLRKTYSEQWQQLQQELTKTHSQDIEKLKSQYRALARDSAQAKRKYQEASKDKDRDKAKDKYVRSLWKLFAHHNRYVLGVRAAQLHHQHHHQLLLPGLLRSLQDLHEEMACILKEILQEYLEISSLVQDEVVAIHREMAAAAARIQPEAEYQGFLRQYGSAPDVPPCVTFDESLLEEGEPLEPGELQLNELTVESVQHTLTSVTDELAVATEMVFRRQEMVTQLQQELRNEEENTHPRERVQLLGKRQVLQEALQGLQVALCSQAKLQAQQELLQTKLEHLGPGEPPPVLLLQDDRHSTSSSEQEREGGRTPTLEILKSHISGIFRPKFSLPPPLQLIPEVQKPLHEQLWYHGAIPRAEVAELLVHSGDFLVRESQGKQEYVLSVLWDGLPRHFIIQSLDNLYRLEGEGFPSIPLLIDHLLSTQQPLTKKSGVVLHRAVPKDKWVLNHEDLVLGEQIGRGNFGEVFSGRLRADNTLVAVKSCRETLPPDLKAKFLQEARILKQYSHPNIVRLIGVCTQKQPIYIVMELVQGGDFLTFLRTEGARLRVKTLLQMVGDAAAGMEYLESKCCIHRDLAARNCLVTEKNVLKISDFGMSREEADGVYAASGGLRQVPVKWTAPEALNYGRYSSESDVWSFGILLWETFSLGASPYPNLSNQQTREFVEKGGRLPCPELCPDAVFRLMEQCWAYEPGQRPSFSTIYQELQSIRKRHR

Compared with CERLPYDASKW [FLT1_Y815], SAVTGYRVDVI [FN1_Y937] is lower in phosphorylation enrichment: 1.13 for the first, 0.566 for the second.

Compared with LFPANYVAPMT [GRAP2_Y324], IHETTHNSIMK [ACTA1_Y281_Y281H] is lower in phosphorylation enrichment: 0.91 for the first, 0.469 for the second.

First: ENAGYYFQVSA
Second: CGLPRYRWLTH [TSPAN12_Y143_Y138C]
The phosphorylation enrichment of the first is higher: 1.37 for the first, 0.929 for the second.

Going from PSPMPYAFCQM [FOXL2_Y215_S217F] to KMMGRYEMYAR [UPB1_Y362_T359M], the phosphorylation enrichment falls from 2.17 to 0.711.

Compared with PIPAAYNKYDQ [CDC73_Y290_R292K], RLDGEYFTLQI [TP53_Y327_P322R] is higher in phosphorylation enrichment: 0.904 for the first, 1.54 for the second.

First: SSPRRYTIAAL [TTR_Y125_G121S]
Second: RRVLVYGDRGA [QDPR_Y16_G18D]
The phosphorylation enrichment of the first is higher: 0.567 for the first, 0.539 for the second.

First: HICTAYKLVLA [DHCR24_Y190_E191K]
Second: TTPYNYSYIFK [RAB14_Y8_A4T]
The phosphorylation enrichment of the first is higher: 2.86 for the first, 0.658 for the second.

Compared with KNEKVYTRHGV [FLOT1_Y56_S52N], KDPPDYKFQPR [SOX9_Y172_H169P_YF] is higher in phosphorylation enrichment: 0.487 for the first, 0.789 for the second.

First: TSNQEYLYLSM [FGFR1_Y766_D768Y]
Second: HTLQLYRCREE [ALPK3_Y342]
The phosphorylation enrichment of the first is higher: 1.31 for the first, 1.03 for the second.

First: ELTAKYLNFFQ [P3H4_Y181_YF]
Second: QADIIYVNTQL [MERTK_Y872_V870I]
The phosphorylation enrichment of the first is lower: 1.05 for the first, 1.29 for the second.

Compared with YSTDYYRVGGH [NTRK2_Y707], ARAFIYAIIPA [ACKtide_2014] is higher in phosphorylation enrichment: 0.732 for the first, 1.46 for the second.

Compared with GRVLGYGAFRK [FLT4_Y853_G857R], GSIQQYTFKQE [PRG4_Y1271_I1272T_YF] is higher in phosphorylation enrichment: 0.586 for the first, 0.785 for the second.

Going from ISSLPYMKMIF [SLC4A11_Y853_M848I] to GLSDPYVKIHL [SYT2_Y309], the phosphorylation enrichment falls from 1.07 to 0.993.

Compared with IALNSYHSRNC [IFNGR1_Y397], VRFMAYTDETC [F8_Y450_F455C] is higher in phosphorylation enrichment: 0.715 for the first, 1.3 for the second.

Sequence PSRKDYETYQS [CTNND2_Y1154_P1159S] has a phosphorylation enrichment of 1.17.

test system: Fer (mouse); test: as above

First: CERLPYDASKW [FLT1_Y815]
Second: SAVTGYRVDVI [FN1_Y937]
The phosphorylation enrichment of the first is higher: 0.49 for the first, 0.335 for the second.

Going from LFPANYVAPMT [GRAP2_Y324] to IHETTHNSIMK [ACTA1_Y281_Y281H], the phosphorylation enrichment falls from 0.418 to 0.347.

Going from ENAGYYFQVSA to CGLPRYRWLTH [TSPAN12_Y143_Y138C], the phosphorylation enrichment falls from 0.595 to 0.438.

Going from PSPMPYAFCQM [FOXL2_Y215_S217F] to KMMGRYEMYAR [UPB1_Y362_T359M], the phosphorylation enrichment falls from 9.08 to 0.302.

Compared with PIPAAYNKYDQ [CDC73_Y290_R292K], RLDGEYFTLQI [TP53_Y327_P322R] is higher in phosphorylation enrichment: 0.394 for the first, 0.72 for the second.

Going from SSPRRYTIAAL [TTR_Y125_G121S] to RRVLVYGDRGA [QDPR_Y16_G18D], the phosphorylation enrichment rises from 0.382 to 0.424.

Compared with HICTAYKLVLA [DHCR24_Y190_E191K], TTPYNYSYIFK [RAB14_Y8_A4T] is lower in phosphorylation enrichment: 1.52 for the first, 0.97 for the second.

Compared with KNEKVYTRHGV [FLOT1_Y56_S52N], KDPPDYKFQPR [SOX9_Y172_H169P_YF] is higher in phosphorylation enrichment: 0.316 for the first, 0.449 for the second.

Compared with TSNQEYLYLSM [FGFR1_Y766_D768Y], HTLQLYRCREE [ALPK3_Y342] is lower in phosphorylation enrichment: 0.845 for the first, 0.575 for the second.

Compared with ELTAKYLNFFQ [P3H4_Y181_YF], QADIIYVNTQL [MERTK_Y872_V870I] is higher in phosphorylation enrichment: 0.517 for the first, 4.18 for the second.

Compared with YSTDYYRVGGH [NTRK2_Y707], ARAFIYAIIPA [ACKtide_2014] is higher in phosphorylation enrichment: 0.44 for the first, 0.81 for the second.

First: GRVLGYGAFRK [FLT4_Y853_G857R]
Second: GSIQQYTFKQE [PRG4_Y1271_I1272T_YF]
The phosphorylation enrichment of the first is lower: 0.406 for the first, 0.427 for the second.

First: ISSLPYMKMIF [SLC4A11_Y853_M848I]
Second: GLSDPYVKIHL [SYT2_Y309]
The phosphorylation enrichment of the first is higher: 1.11 for the first, 0.488 for the second.

First: IALNSYHSRNC [IFNGR1_Y397]
Second: VRFMAYTDETC [F8_Y450_F455C]
The phosphorylation enrichment of the first is lower: 0.347 for the first, 0.522 for the second.

Work on PSRKDYETYQS [CTNND2_Y1154_P1159S] yielded a phosphorylation enrichment of 0.55.
